Test results: patent US20220040319A1 (Regeneron, published 2022)

Experiments:
[1] = molecular target: T1, human MET on cells (human, UniProt P08581 25-1390); assay: cell-based or functional assay
[2] = molecular target: T1, human MET on cells; assay: flow cytometry, 10 µg/ml antibody on EBC-1 cells, Alexa647 anti-human secondary
Experimental: (§1) After one additional wash with FACS buffer, samples were fixed with Cytofix (BD Biosciences, #554655), filtered with FACS buffer and run on an iQue flow cytometer (Intelicyte). Mean fluorescence intensity (MFI) data was determined using FlowJo software (FlowJo LLC).

[3] = molecular target: T1, human MET on cells; assay: cell-based or functional assay; remark: listed apart in the source
[4] = molecular target: T1, human MET on cells; assay: flow cytometry, 10 µg/ml antibody on U87MG cells, Alexa647 anti-human secondary
Experimental: as §1

[5] = molecular target: T1, human MET on cells; assay: flow cytometry, 10 µg/ml antibody on SNU-5 cells, Alexa647 anti-human secondary
Experimental: as §1

[6] = molecular target: T1, human MET on cells; assay: flow cytometry, 10 µg/ml antibody on Hs746t cells, Alexa647 anti-human secondary
Experimental: as §1

[7] = molecular target: T1, human MET on cells; assay: flow cytometry, 10 µg/ml antibody on MDA-MB-231 cells, Alexa647 anti-human secondary
Experimental: as §1

[8] = molecular target: T1, human MET on cells; assay: flow cytometry, 10 µg/ml antibody on A549 cells, Alexa647 anti-human secondary
Experimental: as §1

[9] = molecular target: T1, human MET on cells; assay: cell-based or functional assay; remark: listed apart in the source
[10] = molecular target: T1, human MET on cells; assay: flow cytometry, 10 µg/ml antibody on MKN-45 cells, Alexa647 anti-human secondary
Experimental: as §1

T1 sequence (P08581 25-1390 limits assumed, form in doubt): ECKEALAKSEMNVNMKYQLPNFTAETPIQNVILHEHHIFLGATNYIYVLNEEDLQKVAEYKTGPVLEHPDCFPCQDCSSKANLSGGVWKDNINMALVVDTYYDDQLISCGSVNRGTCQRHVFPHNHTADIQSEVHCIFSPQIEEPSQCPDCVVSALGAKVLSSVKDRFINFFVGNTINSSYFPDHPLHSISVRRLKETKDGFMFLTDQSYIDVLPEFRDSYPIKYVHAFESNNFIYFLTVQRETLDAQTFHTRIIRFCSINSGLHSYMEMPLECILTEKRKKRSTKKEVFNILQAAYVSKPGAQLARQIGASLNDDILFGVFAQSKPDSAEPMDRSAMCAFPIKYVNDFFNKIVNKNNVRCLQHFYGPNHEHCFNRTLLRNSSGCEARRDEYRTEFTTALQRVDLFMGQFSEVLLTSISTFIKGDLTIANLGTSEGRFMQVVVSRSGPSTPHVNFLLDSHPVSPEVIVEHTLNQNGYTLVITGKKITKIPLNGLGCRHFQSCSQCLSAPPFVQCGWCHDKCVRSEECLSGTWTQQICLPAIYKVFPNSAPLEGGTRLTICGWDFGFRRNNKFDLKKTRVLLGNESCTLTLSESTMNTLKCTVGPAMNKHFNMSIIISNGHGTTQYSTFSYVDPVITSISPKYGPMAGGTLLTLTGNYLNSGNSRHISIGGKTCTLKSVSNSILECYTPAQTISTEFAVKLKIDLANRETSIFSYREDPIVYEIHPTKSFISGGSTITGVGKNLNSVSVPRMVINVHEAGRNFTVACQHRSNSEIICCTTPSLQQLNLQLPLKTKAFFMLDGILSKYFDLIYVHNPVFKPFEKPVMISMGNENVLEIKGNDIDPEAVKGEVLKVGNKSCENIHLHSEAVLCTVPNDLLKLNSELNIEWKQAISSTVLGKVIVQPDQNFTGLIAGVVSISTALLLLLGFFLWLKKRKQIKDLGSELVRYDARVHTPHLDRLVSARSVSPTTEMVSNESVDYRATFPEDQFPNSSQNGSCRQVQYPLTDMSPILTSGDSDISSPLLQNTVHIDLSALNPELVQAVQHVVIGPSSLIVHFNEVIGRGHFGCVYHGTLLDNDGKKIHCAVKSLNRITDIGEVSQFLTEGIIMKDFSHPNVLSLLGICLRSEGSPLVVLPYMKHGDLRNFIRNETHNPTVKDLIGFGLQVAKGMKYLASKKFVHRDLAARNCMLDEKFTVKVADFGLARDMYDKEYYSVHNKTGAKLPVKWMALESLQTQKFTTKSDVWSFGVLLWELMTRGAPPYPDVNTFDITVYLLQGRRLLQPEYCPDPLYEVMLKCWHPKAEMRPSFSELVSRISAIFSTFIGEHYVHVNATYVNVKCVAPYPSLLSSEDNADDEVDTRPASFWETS

B1: H4H14635D (bispecific antibody, human IgG4, V domains shown)
VH 1: QVQLVESGGGVVQPGRSLRVSCVVSGFTFSSFGMHWVRQAPDKGLEWVAVIWYDGSNDYYSDSVKGRFTISRDNSKNTLFLQMNRLRAEDTAVYYCARANNWNRFDAFDLWGQGTMVTVSS
VH 2: EVQLVESGGGLVQPGGSLRLSCAASGFIVTTNYMTWLRQAPGKGLEWVSLIYSSGHTYYADSVKGRFTISRHNSKNTLYLQMDSLRAEDTAVYYCASAFAADVFDIWGQGTMVTVSS
VL: not shown
notes: MET x MET bispecific, human IgG4; also called No. 42
- % Inhibition, HEK293/SRE-Luc Blocking Activity (HGF, 1 h mAb pre-bind) [1]: 85%
- EC50, Ligand (HGF)-Independent HEK293/SRE-Luc Activation [1]: 1.4 nM
- Fold Response, Ligand (HGF)-Independent HEK293/SRE-Luc Activation [1]: 2.2 fold
- IC50, HEK293/SRE-Luc Blocking Activity (HGF, 1 h mAb pre-bind) [1]: 0.19 nM
- FACS Binding (MFI Fold Above Isotype Control) [2]: 263 fold above isotype control
- IC50, 6-day in vitro cytotoxicity, A549 [3]: > 100 nM
- IC50, 6-day in vitro cytotoxicity, EBC-1 [3]: > 100 nM
- IC50, 6-day in vitro cytotoxicity, Hs746t [3]: > 100 nM
- Max % Kill, 6-day in vitro cytotoxicity, A549 [3]: 0%
- Max % Kill, 6-day in vitro cytotoxicity, EBC-1 [3]: 11%
- Max % Kill, 6-day in vitro cytotoxicity, Hs746t [3]: 7%
- FACS Binding (MFI Fold Above Isotype Control) [4]: 18 fold above isotype control
- FACS Binding (MFI Fold Above Isotype Control) [5]: 477 fold above isotype control
- FACS Binding (MFI Fold Above Isotype Control) [6]: 39 fold above isotype control
- FACS Binding (MFI Fold Above Isotype Control) [7]: 11 fold above isotype control
- FACS Binding (MFI Fold Above Isotype Control) [8]: 12 fold above isotype control
- Relative MET Level, SNU5 cells, 18 hrs [9]: 0.27 relative to control (hFc)
- FACS Binding (MFI Fold Above Isotype Control) [10]: 183 fold above isotype control
